Test results from the supplement of paper PMC10567573.

B1: C2CD2L (parent)
chain: EPAGSLRELGVWRSLLRLRATRAG

Variants of: B1
Assay: protein stability index of a GFP-peptide fusion (GPS, HEK-293T) (PSI 1-6); higher = more stable
Conditions: c terminus: a fixed tail appended
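Further: lentivirally expressed fusions sorted by FACS into six bins by GFP to DsRed ratio, PSI derived from sequencing read proportions per bin multiplied by bin number.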

Variant	protein stability index
EPAGSLRELGVWRSLLRLRATRAF [G24F]	2.11
EPAGSLRELGVWRSLLRLRATRAN [G24N]	1.91
EPAGSLRELGVWRSLLRLRATRAY [G24Y]	1.99
EPAGSLRELGVWRSLLRLRATRAI [G24I]	1.97
EPAGSLRELGVWRSLLRLRATRAQ [G24Q]	2.77
EPAGSLRELGVWRSLLRLRATRAD [G24D]	2.66
EPAGSLRELGVWRSLLRLRATRAL [G24L]	2.87
EPAGSLRELGVWRSLLRLRATRAW [G24W]	3.29
EPAGSLRELGVWRSLLRLRATRAV [G24V]	2.25
EPAGSLRELGVWRSLLRLRATRAA [G24A]	2.89
EPAGSLRELGVWRSLLRLRATRAP [G24P]	1.96
EPAGSLRELGVWRSLLRLRATRAC [G24C]	2.99
EPAGSLRELGVWRFLLRLRATRAG [S14F]	2.14
EPAGSLRELGVWRALLRLRATRAG [S14A]	1.66
EPAGSLRELGVWRPLLRLRATRAG [S14P]	2.98
EPAGSLRELGVWRGLLRLRATRAG [S14G]	1.42
EPAGSLRELGVWRWLLRLRATRAG [S14W]	2.5
EPAGSLRELGVWRQLLRLRATRAG [S14Q]	2.12
EPAGSLRELGVWRMLLRLRATRAG [S14M]	2.41
EPAGSLRELGVWRELLRLRATRAG [S14E]	2.47
EPAGSLRELGVWRVLLRLRATRAG [S14V]	1.02
EPAGSLRELGVWRLLLRLRATRAG [S14L]	1.33
EPAGSLRELGVWRDLLRLRATRAG [S14D]	1.56
EPAGSLRELGVWRKLLRLRATRAG [S14K]	1.96

Variant	protein stability index
EPAGSLRELGVWRRLLRLRATRAG [S14R]	1.91
EPAGSLRELGVWRSLLRLRAIRAG [T21I]	2.84
EPAGSLRELGVWRSLLRLRAMRAG [T21M]	2.3
EPAGSLRELGVWRSLLRLRAKRAG [T21K]	2.97
EPAGSLRELGVWRSLLRLRAYRAG [T21Y]	2.42
EPAGSLRELGVWRSLLRLRAVRAG [T21V]	1.7
EPAGSLRELGVWRSLLRLRAFRAG [T21F]	1.96
EPAGSLRELGVWRSLLRLRACRAG [T21C]	2.07
EPAGSLRELGVWRSLLRLRALRAG [T21L]	2.12
EPAGSLRELGVWRSLLRLRAWRAG [T21W]	1.31
EPAGSLRELGVWRSLLRLTATRAG [R19T]	2.91
EPAGSLRELGVWRSLLRLDATRAG [R19D]	2.73
EPAGSLRELGVWRSLLRLQATRAG [R19Q]	1.98
EPAGSLRELGVWRSLLRLLATRAG [R19L]	2.95
EPAGSLRELGVWRSLLRLSATRAG [R19S]	3.27
EPAGSLRELGVWRSLLRLHATRAG [R19H]	1.85
EPAGSLRELGVWRSLLRLKATRAG [R19K]	2.99
EPAGSLRELGVWRSLLRLYATRAG [R19Y]	1.48
EPAGSLRELGVWRSLLRLIATRAG [R19I]	2.24
EPAGSLRELGVWRSLLRLVATRAG [R19V]	2.31
EPAGSLRELGVWRSLLRLWATRAG [R19W]	2.22
EPAGSLRELGVWRSLLRLMATRAG [R19M]	2.2
EPAGSLRELGVWRSLYRLRATRAG [L16Y]	2.3
EPAGSLRELGVWRSLIRLRATRAG [L16I]	2.36

Variant	protein stability index
EPAGSLRELGVWRSLTRLRATRAG [L16T]	2.74
EPAGSLRELGVWRSLKRLRATRAG [L16K]	3.56
EPAGSLRELGVWRSLFRLRATRAG [L16F]	2.26
EPAGSLRELGVWRSLGRLRATRAG [L16G]	3.32
EPAGSLRELGVWRSLPRLRATRAG [L16P]	4.09
EPAGSLRELGVWRSLRRLRATRAG [L16R]	2.57
EPAGSLRELGVWRSLLRLRATKAG [R22K]	2.66
EPAGSLRELGVWRSLLRLRATFAG [R22F]	2.1
EPAGSLRELGVWRSLLRLRATSAG [R22S]	2.23
EPAGSLRELGVWRSLLRLRATHAG [R22H]	2.01
EPAGSLRELGVWRSLLRLRATEAG [R22E]	2.25
EPAGSLRELGVWRSLLRLRATGAG [R22G]	2.36
EPAGSLRELGVWRSLLRLRATPAG [R22P]	2.14
EPAGSLRELGVWRSLLRLRATDAG [R22D]	2.3
EPAGSLRELGVWRSLLRLRATYAG [R22Y]	1.34
EPAGSLRELGVWRSLLRLRATRLG [A23L]	2.2
EPAGSLRELGVWRSLLRLRATRPG [A23P]	2.47
EPAGSLRELGVWRSLLRLRATRTG [A23T]	2.29
EPAGSLRELGVWRSLLRLRATRRG [A23R]	3.33
EPAGSLRELGVWRSLLRLRATRFG [A23F]	1.07
EPAGSLRELGVWRSLLRLRATRYG [A23Y]	2.75
EPAGSLRELGVWRSLLRLRATRCG [A23C]	1.7
EPAGSLRELGVWRSLLRLRATRMG [A23M]	1.62
EPAGSLRELGVWRSLLRLRATRHG [A23H]	2.05

Variant	protein stability index
EPAGSLRELGVWRSLLRLRATRWG [A23W]	2.28
EPAGSLRELGVWRSLLRLRATRKG [A23K]	2.94
EPAGSLRELGVWRSLLRLRATRQG [A23Q]	2.23
EPAGSLRELGVWRSLLRFRATRAG [L18F]	2.07
EPAGSLRELGVWRSLLRWRATRAG [L18W]	1.53
EPAGSLRELGVWRSLLRRRATRAG [L18R]	3.54
EPAGSLRELGVWRSLLRIRATRAG [L18I]	2.65
EPAGSLRELGVWRSLLRARATRAG [L18A]	3.73
EPAGSLRELGVWRSLLRCRATRAG [L18C]	2.67
EPAGSLRELGVWRSLLRDRATRAG [L18D]	2.64
EPAGSLRELGVWRSLLRSRATRAG [L18S]	3.53
EPAGSLRELGVWRSLLRPRATRAG [L18P]	3.97
EPAGSLRELGVWRSNLRLRATRAG [L15N]	3.47
EPAGSLRELGVWRSQLRLRATRAG [L15Q]	3.84
EPAGSLRELGVWRSKLRLRATRAG [L15K]	2.96
EPAGSLRELGVWRSTLRLRATRAG [L15T]	2.5
EPAGSLRELGVWRSGLRLRATRAG [L15G]	3.51
EPAGSLRELGVWRSELRLRATRAG [L15E]	4.27
EPAGSLRELGVWRSPLRLRATRAG [L15P]	3.76
EPAGSLRELGVWRSDLRLRATRAG [L15D]	3.67
EPAGSLRELGVWRSMLRLRATRAG [L15M]	2.48
EPAGSLRELGVWFSLLRLRATRAG [R13F]	1.81
